# According to US20210285024A1 (CENTRE NATIONAL DE LA RECHERCHE SCIENTIFIQUE CNRS, published 2021):
# Molecular target: T1, recombinant human Vasohibin-2 (VASH2) (Homo sapiens, UniProt Q86V25 1-355, limits assumed)
# T1 construct: Produced in E. coli (pET-28a(+)/pGEX) and purified by IMAC and ion exchange
# Assay: recombinant complex purified and used as detyrosinase; no direct binding assay described
# T1 sequence (Q86V25 whole entry): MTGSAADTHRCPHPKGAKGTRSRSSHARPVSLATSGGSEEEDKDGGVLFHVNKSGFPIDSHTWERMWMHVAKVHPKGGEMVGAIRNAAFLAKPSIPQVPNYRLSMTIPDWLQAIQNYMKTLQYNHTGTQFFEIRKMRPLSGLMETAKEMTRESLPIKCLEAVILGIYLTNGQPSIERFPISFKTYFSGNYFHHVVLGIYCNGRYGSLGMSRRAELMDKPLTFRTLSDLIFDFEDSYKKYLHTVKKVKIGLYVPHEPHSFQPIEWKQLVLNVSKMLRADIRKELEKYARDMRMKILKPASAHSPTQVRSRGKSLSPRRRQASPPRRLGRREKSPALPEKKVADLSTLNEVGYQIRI
binder,measurement,value
"Small vasohibin-binding protein (SVBP) (other, Coexpressed with VASH1 or VASH2) MDPPARKEKTKVKESVSRVEKAKQKSAQQELKQRQRAEIYALNRVMTELEQQQFDEFCKQMQPPGE",binding result,binds
